{"source": "patent US12648942B2", "about": "“Method for treating acute ischemic stroke” (Lumosa Therapeutics Co., LTD, priority 2021, dated 2026)", "key": {"[1]": {"test": "Plasma pharmacokinetics after single IV bolus in Sprague Dawley rat", "format": "in vivo", "details": "for AUC(0-inf) / Cmax / AUC(0-t): male, Sprague-Dawley, rat, plasma, n=3; for AUC(0-t): read-out: AUClast, Mean (converted)", "method": "The plasma pharmacokinetics of DC009 was studied in SD Rat following a single IV bolus administration of DC009. Male SD rats were dosed with DC009 at 0.001, 0.01, 0.1, 1 and 10 mg/kg by intravenous bolus injection with a dose volume of 1 mL/kg (n=3 per treatment group)."}, "[2]": {"test": "Study 101: safety and tolerability of single doses in healthy subjects", "format": "in vivo", "details": "both sexes, human, plasma, intravenous; from Subject 001-008 and Subject 001-042, 0.05 mg/kg; read-out: Cmax at which DC009 was tolerable in human", "description": "The primary objective of this Phase 1, double-blind, randomized, placebo-controlled study was to determine the safety, tolerability, and pharmacokinetics of single ascending doses of DC009 drug product administered by 15-minute IV infusion in healthy subjects. The secondary objectives were to characterize the pharmacodynamics of single-ascending doses, explore the pharmacokinetic-pharmacodynamic relationships of single-ascending doses, and to determine the RP2D of the DC009 drug product.\nThe subject population was healthy adult male and female subjects between the ages of 18 and 65 years. Sixteen healthy subjects completed the study. All subjects received a single dose of DC009 drug product or placebo administered via a 15-minute IV infusion.\nCohort 1 (8 subjects) was administered 0.05 mg/kg DC009 drug product or placebo, and Cohort 0 (8 subjects) was administered 0.025 mg/kg DC009 drug product or placebo. […]"}, "[3]": {"test": "Human plasma pharmacokinetics, summary statements of the description", "format": "in vivo"}, "[4]": {"test_system": "embolic occlusion of the middle cerebral artery in male Sprague-Dawley rats", "test": "Embolic stroke model in SD rat (Examples 1, 4-6)", "format": "in vivo, Sprague-Dawley rat", "details": "for Mean neurological deficit scores (NDS): 24 hours after drug administration", "method": "A 10% chloral hydrate solution (400 mg/kg) was injected intraperitoneally into SD male rats (240-320 g) for anesthesia. A vertical incision of about 2 cm in length was made on the right side near the center of the neck, and the right common carotid artery (CCA), external carotid artery (ECA) and internal carotid artery (ICA) were separated along the margin of the inner side of sternocleidomastoid muscles. The incision at the internal carotid artery and the proximal end of the common carotid artery were clipped respectively with noninvasive arterial clips. A small incision was made on the external carotid artery, and the distal end of the external carotid artery was ligated. The arterial clip at the proximal end of the common carotid artery was released, and 10 μl blood was drawn. After blood was drawn, the proximal end of the common carotid artery was again clipped with a noninvasive arterial clip. The 10 μl blood drawn was placed in a 1 mL EP vial and kept at RT for 30 min to allow the coagulation of blood and then transferred into a −20° C. refrigerator for 1 hour to allow the formation of solid coagulation. 1 hour later, the blood clots were taken out, 1 mL normal saline was added therein, and then the blood clots were broken into relatively uniform microthrombus by a steel spatula. The microthrombus suspension was then transferred into a 1 mL injector for use. When the clip on the internal carotid artery of the rat was released, the 1 mL thrombus suspension in the injector was slowly injected from the external carotid artery of the rat to its proximal end, and then was injected into the brain of the rat through the internal carotid artery. Subsequently, the proximal end of the external carotid artery was ligated, the arterial clips on the internal carotid artery and the common carotid artery were released, and blood flow was restored. The common jugular vein was separated, and then injected with normal saline solution, or tested compound. The vein was ligated. 3 drops of penicillin was dropped on the wound. The wound was sewed, and animals were waited for awake.\n24 hours after the rats were awake, the degree of damage in neural function was evaluated by the Zealonga method. A score of 0 indicated no sign of loss in neural function, 1 indicated the front limbs on the undamaged side could not stretch out, 2 indicated walking toward the undamaged side, 3 indicated tail-chasing walking in circles toward the undamaged side, 4 indicated involuntary walking with disturbance of consciousness, and 5 indicated death. The evaluation results were statistically analyzed and subjected to t-test.\nAfter the rats were awake for 24 hours and assessed for their degree of damage in neural function by Zealonga method, they were anesthetized with urethane followed by immediate decapitation and removal of the brain. Brain tissues were kept in a −20° C. refrigerator for 2 hours, and coronal sections of about 2 mm were successively sliced from the prefrontal end for a total of 5 sections and then placed into a 2% TTC solution to incubate without light at 37° C. for 30 min. The color change in brain sections was observed: normal brain tissues were stained red by TTC, while ischemic brain tissues appeared in white. Photographs were taken by using a digital camera and processed with image statistics software, and the volume of infarction in brain tissues and the area of normal brain tissues in the coronal sections were calculated. The ratio of the cerebral infarction volume of each group was statistically calculated and subject to t-test.\nAn embolic occlusion of the middle cerebral artery in male Sprague-Dawley rats was induced by introducing blood clots into the carotid artery. Rats were treated with vehicle (saline), rtPA (10 mg/kg, IV bolus injection), or DC009 (0.007 mg/kg, IV bolus injection) after 3 hours of stroke onset (n=12-13 per treatment group). […]"}, "[5]": {"test_system": "subjects with acute ischemic stroke (AIS)", "details": "cited from earlier work"}, "[6]": {"details": "0.001 mg/kg IV bolus, some concentrations below LLOQ 5 ng/mL"}, "[7]": {"details": "0.01 mg/kg IV bolus, some concentrations below LLOQ 5 ng/mL"}}, "note": "Where two headings read alike, the source gives them in different places.", "data": [{"molecule": "CC(NC(=O)C1CCCN1)C(=O)NC(CCCCN)C(=O)NCCCCC(NC(=O)C1Cc2cc(O)c(O)cc2C(C)(C)N1)C(=O)O", "note": "(stereo not drawn) [DC009, 3S-6,7-dihydroxy-1,1-dimethyl-1,2,3,4-tetrahydro-isoquinoline-3-acyl-Lys(Pro-Ala-Lys)]", "values": [{"measurement": "dose proportionality of Cmax and AUC0-∞", "setting": "[1]; dose of 0.1 to 10 mg/kg groups", "result": "approximately dose-proportional increases"}, {"measurement": "AUC(0-inf)", "setting": "[1]; [6]", "result": 1.88, "unit": "ng·h/mL"}, {"measurement": "Cmax", "setting": "[1]; [6]", "result": 1.6, "unit": "ng/mL"}, {"measurement": "AUC(0-t)", "setting": "[1]; [6]", "result": 1.76, "unit": "ng·h/mL"}, {"measurement": "AUC(0-inf)", "setting": "[1]; [7]", "result": 4.04, "unit": "ng·h/mL"}, {"measurement": "Cmax", "setting": "[1]; [7]", "result": 6.1, "unit": "ng/mL"}, {"measurement": "AUC(0-t)", "setting": "[1]; [7]", "result": 3.35, "unit": "ng·h/mL"}, {"measurement": "AUC(0-inf)", "setting": "[1]; 0.1 mg/kg IV bolus", "result": 8.31, "unit": "ng·h/mL"}, {"measurement": "Cmax", "setting": "[1]; 0.1 mg/kg IV bolus", "result": 59.9, "unit": "ng/mL"}, {"measurement": "AUC(0-t)", "setting": "[1]; 0.1 mg/kg IV bolus", "result": 7.89, "unit": "ng·h/mL"}, {"measurement": "AUC(0-inf)", "setting": "[1]; 1 mg/kg IV bolus", "result": 53.2, "unit": "ng·h/mL"}, {"measurement": "Cmax", "setting": "[1]; 1 mg/kg IV bolus", "result": 426, "unit": "ng/mL"}, {"measurement": "AUC(0-t)", "setting": "[1]; 1 mg/kg IV bolus", "result": 52.8, "unit": "ng·h/mL"}, {"measurement": "AUC(0-inf)", "setting": "[1]; 10 mg/kg IV bolus", "result": 937, "unit": "ng·h/mL"}, {"measurement": "Cmax", "setting": "[1]; 10 mg/kg IV bolus", "result": 8120, "unit": "ng/mL"}, {"measurement": "AUC(0-t)", "setting": "[1]; 10 mg/kg IV bolus", "result": 936, "unit": "ng·h/mL"}, {"measurement": "Cmax", "setting": "[2]", "result": "~150", "unit": "ng/mL"}, {"measurement": "accumulation on multiple doses", "setting": "[3]; administration of multiple doses", "result": "does not lead the accumulation"}, {"measurement": "plasma level after dosing", "setting": "[3]; human plasma, 30 minutes after dosing", "result": "almost un-measurable"}, {"measurement": "half-life", "setting": "[3]; human plasma, read-out: elimination half-life", "result": "< 5", "unit": "min"}, {"measurement": "infarct volumes (% hemisphere)", "setting": "[4]; DC009 0.0007 mg/kg IV bolus from 24 hours after stroke onset, once daily for 6 days, 7 days after stroke", "result": "9.95 ± 10.32", "unit": "% hemisphere"}, {"measurement": "effective dose in the rat Embolic Stroke Model", "setting": "[4]; data from Example 4-6", "result": "7 to 70", "unit": "µg/kg"}]}, {"molecule": "rtPA: Alteplase (Activase), a recombinant tissue-type plasminogen activator (rtPA) [reference compound]", "values": [{"measurement": "risk of symptomatic intracerebral hemorrhage", "setting": "[5]", "result": "~5", "unit": "fold"}, {"measurement": "Mean neurological deficit scores (NDS)", "setting": "[4]; rtPA 3 mg/kg IV bolus 6 hours after stroke onset, 6-point scale", "result": "3.27 ± 1.85"}, {"measurement": "infarct volumes (% hemisphere)", "setting": "[4]; rtPA 3 mg/kg IV bolus 6 hours after stroke onset, 24 hours, TTC", "result": "17.90 ± 7.47", "unit": "% hemisphere"}, {"measurement": "Mean neurological deficit scores (NDS)", "setting": "[4]; rtPA 10 mg/kg IV bolus 3 hours after stroke onset, scale 0-5", "result": "2.13 ± 1.173"}, {"measurement": "infarct volumes (% hemisphere)", "setting": "[4]; rtPA 10 mg/kg IV bolus 3 hours after stroke onset, 24 hours, TTC", "result": "12.74 ± 9.02", "unit": "% hemisphere"}]}]}
